# T1: HR2P-FITC (HR2P peptide labeled with FITC) (MERS-CoV, UniProt K9N5Q8 1251-1286)
# T1 peptide: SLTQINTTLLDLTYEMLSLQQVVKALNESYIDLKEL
# B1: HR1P peptide (residues 998-1039 of the MERS-CoV S protein, HR1 domain of the S2 subunit) (peptide)
# peptide: ANKFNQALGAMQTGFTTTNEAFHKVQDAVNNNAQALSKLASE
# Target: T1, HR2P-FITC (HR2P peptide labeled with …)
# Assay: native gel or EMSA
binder,measurement,value
B1,binding result,binds
